Target: [2Fe-2S]-bound Mtb-SufU (sulfide transfer protein SufU, Rv1465, of Mycobacterium tuberculosis H37Rv) (Mycobacterium tuberculosis H37Rv) (UniProt O53156)
Assay: SEC-MALS

## [2Fe-2S]-bound Mtb-SufU (sulfide transfer protein SufU, Rv1465, of Mycobacterium tuberculosis H37Rv) (from UniProt O53156 1-162) (natural protein)
  stoichiometry N: 4

Reference: publication doi:10.1101/2025.06.15.659787
